Test results reported in article PMC8297725.

How the values were obtained:
Asp181 [1] = biological target: Asp181 (UniProt position 181, YGTWPDFGVPE); assay: kinetics; settings: 25 °C; constant ionic strength buffer mix (value not stated); 50 mM sodium acetate, 100 mM Tris, 100 mM bis-Tris; steady-state turnover with the substrate pNPP
Cys215 = Cys215 (UniProt position 215, PVVVHCSAGIG); assay: kinetics; settings: 25 °C; constant ionic strength buffer mix (value not stated); 50 mM sodium acetate, 100 mM Tris, 100 mM bis-Tris; steady-state turnover with the substrate pNPP
Asp181 [2] = biological target: Asp181 (UniProt position 181, YTTWPDFGVPE); assay: kinetics; settings: 25 °C; constant ionic strength buffer mix (value not stated); 50 mM sodium acetate, 100 mM Tris, 100 mM bis-Tris; steady-state turnover with the substrate pNPP
Asp356 = Asp356 (UniProt position 356, VGNWPDQTAVS); assay: kinetics; settings: 25 °C; constant ionic strength buffer mix (value not stated); 50 mM sodium acetate, 100 mM Tris, 100 mM bis-Tris; steady-state turnover with the substrate pNPP
Cys403 [3] = biological target: T1, Cys403 (UniProt position 403, RPVIHCRAGVG); assay: kinetics; settings: 25 °C; constant ionic strength buffer mix (value not stated); 50 mM sodium acetate, 100 mM Tris, 100 mM bis-Tris; steady-state turnover with the substrate pNPP
Cys403 [4] = biological target: T1, Cys403; assay: chemical modification; settings: ligand-free enzyme

Substance	pKa (Asp181 [1])	pKa (Cys215)	pKa (Asp181 [2])	pKa (Asp356)	pKa (Cys403 [3])	pKa (Cys403 [4])	pKa (Cys403 [4]; cited from earlier work)
PTP1B T177G (Homo sapiens; T177G)	6.37 ± 0.28	5.44 ± 0.37					
Protein tyrosine phosphatase 1B (PTP1B), wild type (Homo sapiens)		5.08 ± 0.20	6.44 ± 0.26				
YopH (Yersinia protein tyrosine phosphatase), wild type (Yersinia (species not stated in the article))				5.58 ± 0.34	5.02 ± 0.27	4.6 ± 0.2	4.67 ± 0.15
